In the assay the target is Burkholderia cenocepacia cytosolic carboxypeptidase (BcCCP) (Burkholderia cenocepacia J2315). As to the kind of experiment: SEC-MALS; Superdex 200 10/300, 50 mM Tris-HCl, 250 mM NaCl pH 7.5; Wyatt miniDAWN TREOS and Optilab T-rEX detectors. (In gel filtration, larger molecules generally elute earlier.)

Here are results for one substance from paper PMC3940198.

Broadly, the stoichiometry N is a count of units in the complex or per binding partner. For “Burkholderia cenocepacia cytosolic carboxypeptidase (BcCCP) (enzyme)”, the stoichiometry N amounted to 4.
